system: K4 kissing-loop RNA reporter; assay: apparent KD of K4 kissing-loop reporter; higher = weaker reporter binding; settings: Eterna round: R107; input ligand: FMN 200 uM
Procedure: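 RNA-MaP round R107: designed RNA switches with theophylline, tryptophan, arginine or FMN aptamers are transcribed on-chip within common flanks. They are titrated with a labelled K4 kissing-loop RNA reporter in RNA-MaP buffer (100 mM Tris pH 7.5, 80 mM KCl, 4 mM MgCl2), without ligand or with the indicated ligand. Median apparent KD per design.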
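Note: bound reporter read as fluorescence of individual clusters on recovered sequencing chips by microscopy, with normalized cluster intensities fitted with a binding model.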

Sequence	apparent KD of K4 kissing-loop reporter [nM]
AAGUACACGAUAGUGUACACCUAGUGAUGUUAGGAUAUGCAGAUAUGCAGAAGGAGCAAGUCAUCUGACAAUAGUCGGAUGACAA [FmnAX 7 #OpenEnded #K4Early]	315
AGCAAUAUCACGGCCGCCACUGAAUAUUGUUUUUAUAGUUAUAAAUCUUGCCAGUGAUGUUGGUUCAGGACCGGGUGAGUUAAUA [JR_SSTryptoB_Sub003]	572
AGCCAUCACACGGCCGCCACUGAGUAGUGAUGUUGCUUGUAAAUCAGUCACCGCAUUAAUGCCGACAGGACCGGGUGCAUCGAGG [theeternabot_exclusion_KL_Trp_B_17]	327
GGAGAGCGAAAAGGAUAUGCGUCCGUCAAAAUUAUGUAGCGCGGAAAAUGGUAGUGAUGUUGCAAAGCAGAAGGUUUCAGAUGUA [theeternabot_sameState_KL_FMN_B_43]	260
AGUGAUGUGGGAAGGAGCGGUAUAUGAGUUCAGUGAUGUUGAAGUGAUGAUAUAGUGAUGUGCCAGGUAGGUCGCCUAGAUGUUA [KL-XARG-B5]	281
AGACUACUGACAGGAUAUAACAUAUUAGCUCGUAUACCAAAGGUAUACGAGCACCUUCUAGUGAUGUUAGAAGGGUCGGUAGUCA [Omei KL FMN B Exc B v1]	297
UGCACGGGCUCGGCCGCCACUCCCGCGGGUCGCAAGGUCCGCUACUGAGUGAUGUUCGGUUGGAGGAGGACCGGGAGCCCGUGCA [#2 Exclusion - Tryptophan B Attempt #27 (HarryS)]	131
UUUAAAUAUAGUGAUGUUAUAUAACAAUGACGAGGACCGGUACGGCCGCCACUCGAGAGAGAUAAUGGUCUUACAAAUGUAAGUU [AstrosSSTryA#9]	567
ACCAUCAAAGAUGGCCAGGACACCGCUGAUACCAGAGUGAAAACACUCCCUUGGCAGCAGGUGAGUGAUGUUCACAGUCCAUGGA [Omel KL Theo A SS B v2]	566
AAAAUAAAUAGCAGUCAUGGAGUGAUGUUCCGAGGACCGGUACGGCCGCCACUCGACCAUCAUAAGAUGGAAUGGCAAGACUGCA [#SwitchBubble 23 #K4Early]	330
GGUGUUGUUUGUGCUGUUUUCCUCGUUCCUCGAGGACCGGUACGGCCGCCACUCGAGUGAUGUUUGGGUAGCGAUCCCUGUUAGU [Bdazzled - #8 Exc. Tryptophan A]	624
UGUGAGCUGUCGACAAAAGUCGACUAAAAUGAGGAUAUGACGAAAGUCAGAAGGCAUCAAUAAUGGAGUGAUGUUCCUGCUCACU [FmnA 9 U30+A56]	373
GGGAGUAGUGCGGCCGCCACUGAGAAAGAAGAAGAAUAUAGUGAUGUUAUAUAGGAAUAAAAGAACAGGACCGGGCAUUAGAUUU [SSTRyptB.T]	263
AUAUGCAGGAGAAGGAGCGUCGUUUCAAGUGAUGUUUGCAAGCGAGCUUACUAUAUAAGACGACAGGUAGGUCGCUCCUGCGUAA [#06 K4 Arginine B Exclusion]	166
GAUUGGCGGACGGCCGCCACUCGGACGAGUCACAGUGAUGUUGUGGUUUGCCAGUCGACUUCAUCGAGGACCGGGUUUGUCGGGC [Exclusion Tryptophan B GF 21]	592
AAUAUAGUGAUGUUAUAUAAGAAGGAGUUACGAGGACCGGUACGGCCGCCACUCGAAACGAGUGAGGGCCCGGGAGAUUGGGCCC [SSTryptA.G]	339
AACUGCUAAGAGGUUAAGCACGUCAUUAUGAAGGAUAUAGAAUUCACUAGAAGGUCAUGUGCCCUGAGUGAUGUUCAGAUAGGCG [theeternabot_sameState_KL_FMN_A_25]	294
AUACAUGUAAAUCUAUAUGUAUAAUGGAGCCGAGGACCGGUACGGCCGCCACUCGGAGUAAUCGGAGUGAUGUUCCGAAAUGUAC [KL-SSTryp-A sub13]	93.7
AUUAAUUUCAGAGGAUAUCGUAAUUUUAUUUUAUUUUUUCAUUUAUGCAGUGAUGUUGCAUUUAUUCGAGAAGGCUGAUUUAUAA [JR_SSFMNB_Sub021]	65.7
GGAGUUACCUGGGAUACCAGUCGGAGUCCCAGAGCUCGGAGUGAUGUUCUGGGAUGUUUCGGCCCUUGGCAGCUCUGGGACUCCC [#2 Exclusion - Theophylline B Attempt #9 (HarryS)]	893
GACUGGAGUGAUGUUCCAUUAACGAUCCUACGAGGACCGGUACGGCCGCCACUCGAAAUGCAGUGAUGUUGCAGCCAGCCGUACU [Exclusion Trptophan A GF 8]	157

Sequence	apparent KD of K4 kissing-loop reporter [nM]
CGAUGUUCCUGGGAUACCAGUCGGAGUCUCAGAGCUCGGAGUGAUGUUCUGGGAUGUUUCGGCCCUUGGCAGCUCUGGGACUCCC [#2 Exclusion - Theophylline B Attempt #23 (HarryS)]	843
AGUGAUGUGGGAAGGAGCGGUUAAUGAAUUCAGUGAUGUUGAAGUGAUGCUGAAAUGAUGUGCCAGGUAGGUCGCCUAGAUGUUA [KL-XARG B28]	308
GCCAUCUACUAAGGAUAUUAAGUCAAUAUUUGUGGUGCCAUCUGUCGUUCAGGGCAGUGAUGUUGCUAAGAAGGUAGUCUGUCGG [theeternabot_exclusion_KL_FMN_B_39]	757
CCUUCCCUUGAUAGUGAUGUUAUCAAGGACAAGGAUAUCAUCUCAAUGAGAAGGUGUCCUUGAUAACAUGGAGGUCUGAAACAGA [Omei KL FMN A Exc C v2]	279
GUCUGCGUCUCGGCCGCCACUCACUAGUGAUGUUAGUAAGGAGCGACUAGAGAAGUCCAGUUGAUGAGGACCGGGAGACGCAAAA [Exclusion Tryptophan B GF4]	114
AGGAUGUAGUGAUGUUAUAUAAGAAGUAAACGAGGACCGGUACGGCCGCCACUCGAAGCGGCUACUAGCGCGCCGCGAGGCGCGC [ExTryptoA.Cb]	370
CGUGCCCAGCCGGAUACCAGUGACCCGCUGGGAACCGCGGGCCCAGAGUGAUGUUCGGGACACCCUUGGCAGCCGCCUGGGCGGC [#2 Same State - Theophylline B Attempt #12 (HarryS)]	1380
AUUUAAUUAACUGAUACCAGACUUAAUGUUUUGUAUAUUACUAGUGAUGUUAGUGAUUCUGUCCCUUGGCAGCAGUAUCUACUUA [JR_ExcTheophyB_Sub014]	140
AACUGUCAAGGCCAACAUUACUGAGGUGAUACCAGCAUCGAAAGAUGCCCUUGGCAGCACCAACUUGCAGUGAUGUUGCAAGUAA [BrourdMod 13 - Jieux - Exclusion - Theophylline A]	231
CAUGCCAUGAUCCUCCUGGUAUCUCCUGAUACCAGCGUGCUGACACGCCCUUGGCAGCAGGAGUCGAGAGUGAUGUUGUCGAGAA [KL-SSTheo-A9 #analogue]	568
GCUAGGCAUGCAGGAUAUCGCCGAGUGAUGUUCGGUAGGCCGCUUUCUUUCUUUCUUUGCGGCCAGCGAGAAGGGCAUGCCUAGC	139
UAUUUAAUGUCAGGAUAUCGUAUACGAGUGAUGUUCGUAUUUCUACUAUAGAUUAUUUAAAUUUUUCGAGAAGGGACAAUAUUUA [KL-SSFMN-B4]	177
UGUAUGUGAUUUGAUACCAGACCAGCUGGUGGUAUAUGAGUGAUGUUCAUGUUGGUGUGGGUCCCUUGGCAGCAAAUCGCAUACU [KL-SSTheoB9]	242
AAAAUUGCGGUCGAAAGAACUUCUUGCAUACGAGGACCGGUACGGCCGCCACUCGAGUCAAGUGAUGUUUGAUUUUCUAUUAUUA [JR_ExcTryptoA_Sub013]	135
GGAUAGGAUAGAGGAUAUGGCUUAUGCAGAAAUAACUUAUUGUGUAAAUCCAUAGGGAGUGAUGUUCCAGAAGGCUGUCCUAUCG [MatMod 16 - Jieux - Exclusion - FMN B]	821
AGUGAUGUGGGAAGGAGCGGUAUAUGAAUUCAGUGAUGUUGAAGUGAUGCUGUAAUGAUGUGCCAGGUAGGUCGCCUAGAUGUUA [KL-XARG B26]	267
ACGCGCGCGAGUGAUGUUCGGAGCGGCUGGCAGGAUAUGUAGCAAUGCAGAAGGGUCGUGGCGCGUCCAGGGUAACCUGGACGCG [#2 Exclusion - FMN A Attempt #26 (HarryS)]	280
UGAUCUCAGUGAUGUUGAGAUCAAACUGAUACCAGUCAAUUUAGUGACCCUUGGCAGCAGUAUACCAAGGGAUCUUAUGAGAUCA [Theo A SS t5]	173
CGAGUCCUGAGGAGUGAUGUUCCUCGGCCACGAGGACCGGUACGGCCGCCACUCGUUACUCGAGCUUAGUAGCUAGCACUAAGCC [Zaussora]	189
AAAUAGCUGACGUUGAGUGGGAGCCAGGCACGAGGACCGGUACGGCCGCCACUCGACUAGGUUUUCAGUGAUGUUGAAAAUUUAA [Exclusion Tryptophan A GF 5]	239
AAGCAGUCACUCGAAUCCAUCGAAGAUGGGCGAGGACCGGUACGGCCGCCACUCGGAGUGAUGUUCCGCAGACUGCAAAAUAAAA	636

same assay, conditions: Eterna round: R107; input ligand: arginine 13.2 mM

Sequence	apparent KD of K4 kissing-loop reporter [nM]
AAGUACACGAUAGUGUACACCUAGUGAUGUUAGGAUAUGCAGAUAUGCAGAAGGAGCAAGUCAUCUGACAAUAGUCGGAUGACAA [FmnAX 7 #OpenEnded #K4Early]	63.2
AGCAAUAUCACGGCCGCCACUGAAUAUUGUUUUUAUAGUUAUAAAUCUUGCCAGUGAUGUUGGUUCAGGACCGGGUGAGUUAAUA [JR_SSTryptoB_Sub003]	596
AGCCAUCACACGGCCGCCACUGAGUAGUGAUGUUGCUUGUAAAUCAGUCACCGCAUUAAUGCCGACAGGACCGGGUGCAUCGAGG [theeternabot_exclusion_KL_Trp_B_17]	142
GGAGAGCGAAAAGGAUAUGCGUCCGUCAAAAUUAUGUAGCGCGGAAAAUGGUAGUGAUGUUGCAAAGCAGAAGGUUUCAGAUGUA [theeternabot_sameState_KL_FMN_B_43]	259
AGUGAUGUGGGAAGGAGCGGUAUAUGAGUUCAGUGAUGUUGAAGUGAUGAUAUAGUGAUGUGCCAGGUAGGUCGCCUAGAUGUUA [KL-XARG-B5]	144
AGACUACUGACAGGAUAUAACAUAUUAGCUCGUAUACCAAAGGUAUACGAGCACCUUCUAGUGAUGUUAGAAGGGUCGGUAGUCA [Omei KL FMN B Exc B v1]	99.8
UGCACGGGCUCGGCCGCCACUCCCGCGGGUCGCAAGGUCCGCUACUGAGUGAUGUUCGGUUGGAGGAGGACCGGGAGCCCGUGCA [#2 Exclusion - Tryptophan B Attempt #27 (HarryS)]	110
UUUAAAUAUAGUGAUGUUAUAUAACAAUGACGAGGACCGGUACGGCCGCCACUCGAGAGAGAUAAUGGUCUUACAAAUGUAAGUU [AstrosSSTryA#9]	646
ACCAUCAAAGAUGGCCAGGACACCGCUGAUACCAGAGUGAAAACACUCCCUUGGCAGCAGGUGAGUGAUGUUCACAGUCCAUGGA [Omel KL Theo A SS B v2]	422
AAAAUAAAUAGCAGUCAUGGAGUGAUGUUCCGAGGACCGGUACGGCCGCCACUCGACCAUCAUAAGAUGGAAUGGCAAGACUGCA [#SwitchBubble 23 #K4Early]	265
